Assay [1] concerns the target GST-E2 300-360 (Epstein-Barr virus) (UniProt P12978). Nature of the assay: pull-down.
For assay [2], the target named is GST-E2 335-360 (Epstein-Barr virus) (UniProt P12978). The assay can be described thus: pull-down.

As for “endogenous PRMT5 (protein arginine methyltransferase 5) (from UniProt O14744 1-637) (enzyme)”, the percent of endogenous PRMT5 pulled down in assay [1] and in assay [2] was 5% in each case.
